According to patent publication US20130122013A1 (Eli Lilly, published 2013):

T1: human ferroportin 1 (human, UniProt Q9NP59 1-571)
T1 sequence: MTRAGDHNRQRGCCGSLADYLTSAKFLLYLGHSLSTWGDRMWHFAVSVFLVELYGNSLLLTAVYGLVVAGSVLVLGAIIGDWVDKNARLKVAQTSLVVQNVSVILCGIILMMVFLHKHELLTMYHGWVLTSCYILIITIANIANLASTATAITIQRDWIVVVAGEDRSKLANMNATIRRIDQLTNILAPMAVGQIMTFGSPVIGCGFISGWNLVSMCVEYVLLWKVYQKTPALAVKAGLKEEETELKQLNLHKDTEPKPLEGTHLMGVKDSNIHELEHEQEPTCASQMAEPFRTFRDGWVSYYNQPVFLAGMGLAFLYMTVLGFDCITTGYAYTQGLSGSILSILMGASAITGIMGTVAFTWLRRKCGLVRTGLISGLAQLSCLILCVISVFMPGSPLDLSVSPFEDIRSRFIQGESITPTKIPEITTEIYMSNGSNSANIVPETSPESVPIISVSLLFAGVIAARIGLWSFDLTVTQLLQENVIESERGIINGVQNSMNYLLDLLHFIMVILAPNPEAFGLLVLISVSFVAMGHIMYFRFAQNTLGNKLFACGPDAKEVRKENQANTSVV

T2: human FPN1 C-terminally fused with GFP (human, UniProt Q9NP59 1-571, GFP reporter fused to the C-terminus ("FPN1 is C-terminally fused with GFP"). It is left out because the patent gives no letters for it.)
T2 sequence: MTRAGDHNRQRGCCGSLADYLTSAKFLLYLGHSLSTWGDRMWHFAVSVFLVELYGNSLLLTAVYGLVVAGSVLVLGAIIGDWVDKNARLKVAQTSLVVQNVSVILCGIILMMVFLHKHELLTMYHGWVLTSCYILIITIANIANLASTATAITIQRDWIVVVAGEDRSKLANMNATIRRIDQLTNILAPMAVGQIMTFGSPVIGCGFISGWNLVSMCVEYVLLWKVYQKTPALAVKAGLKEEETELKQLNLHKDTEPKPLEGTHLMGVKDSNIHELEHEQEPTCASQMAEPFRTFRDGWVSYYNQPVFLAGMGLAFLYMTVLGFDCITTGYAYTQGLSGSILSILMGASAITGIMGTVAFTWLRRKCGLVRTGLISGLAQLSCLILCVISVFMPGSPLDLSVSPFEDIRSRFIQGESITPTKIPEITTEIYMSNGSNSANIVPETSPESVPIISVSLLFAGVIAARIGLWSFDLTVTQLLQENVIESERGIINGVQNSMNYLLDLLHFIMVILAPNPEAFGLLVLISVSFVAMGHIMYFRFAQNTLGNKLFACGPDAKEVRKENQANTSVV

T3: rat ferroportin (rat, UniProt Q923U9 1-570, limits assumed)
T3 sequence (looked up): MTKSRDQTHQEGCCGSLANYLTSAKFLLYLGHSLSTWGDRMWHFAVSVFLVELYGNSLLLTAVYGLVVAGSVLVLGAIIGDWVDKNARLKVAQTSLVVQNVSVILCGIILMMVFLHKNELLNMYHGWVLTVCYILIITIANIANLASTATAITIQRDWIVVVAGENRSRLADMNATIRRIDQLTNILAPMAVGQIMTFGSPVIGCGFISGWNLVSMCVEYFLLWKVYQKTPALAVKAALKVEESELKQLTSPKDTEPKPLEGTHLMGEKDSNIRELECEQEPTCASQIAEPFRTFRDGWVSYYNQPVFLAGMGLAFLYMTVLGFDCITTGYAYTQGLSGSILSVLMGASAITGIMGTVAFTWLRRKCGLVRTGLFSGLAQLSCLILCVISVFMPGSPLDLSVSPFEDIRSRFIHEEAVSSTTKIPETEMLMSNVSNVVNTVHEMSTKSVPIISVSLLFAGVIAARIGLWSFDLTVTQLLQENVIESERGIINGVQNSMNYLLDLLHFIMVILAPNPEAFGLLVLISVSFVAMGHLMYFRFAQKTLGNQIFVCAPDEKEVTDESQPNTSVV

B1: Mab 4A10-3 (antibody, human IgG4 S228P, kappa, F234A L235A, V domains shown)
VH: QVQLVQSGAEVKKPGSSVKVSCKASGYAFTSFLIEWVRQAPGQGLEWMGTSNPRTGGRKYKEKFRGRVTITADKSTSTAYMELSSLRSEDTAVYYCAREFFDYWGQGTTVTVSS
VL: DIQMTQSPSSLSASVGDRVTITCRASKSISKYTAWYQQKPGKAPKLLIYAGSKLHWGVPSRFSGSGSGTDFTLTISSLQPEDFATYYCQQHNEYPYTFGGGTKVEIKR
B2: Mab Combi11 (antibody, human IgG4 S228P, kappa, F234A L235A, V domains shown)
VH: QVQLVQSGAEVKKPGSSVKVSCKASGYAFTSFLIEWVRQAPGQGLEWMGTSNPRTGRTKYKSKFRGRVTITADKSTSTAYMELSSLRSEDTAVYYCAREFFDYWGQGTTVTVSS
VL: DIQMTQSPSSLSASVGDRVTITCRASKSISKYTAWYQQKPGKAPKLLIYAGSKRHWGVPSRFSGSGSGTDFTLTISSLQPEDFATYYCQQHNEYPYTFGGGTKVEIKR

Legend:
human ferroportin 1 [1] = target: T1, human ferroportin 1; assay: inhibition of binding of 30 nM biotinylated hepcidin to FPN/293 cells, ELISA of lysate; control antibody at 2000 nM; mean
human ferroportin 1 [2] = target: T1, human ferroportin 1; assay: inhibition of binding of 30 nM biotinylated hepcidin to FPN/293 cells, ELISA of lysate; control antibody at 7.8 nM; mean
human ferroportin 1 [3] = target: T1, human ferroportin 1; assay: inhibition of binding of 30 nM biotinylated hepcidin to FPN/293 cells, ELISA of lysate; control antibody at 125 nM; mean
human ferroportin 1 [4] = target: T1, human ferroportin 1; assay: inhibition of binding of 30 nM biotinylated hepcidin to FPN/293 cells, ELISA of lysate; control antibody at 31.25 nM; mean
human ferroportin 1 [5] = target: T1, human ferroportin 1; assay: inhibition of binding of 30 nM biotinylated hepcidin to FPN/293 cells, ELISA of lysate; control antibody at 500 nM; mean
human ferroportin 1 [6] = target: T1, human ferroportin 1; assay: cell-based or functional assay
[7] = target: T2, human FPN1 C-terminally fused with GFP; assay: inhibition of binding of 30 nM biotinylated hepcidin to FPN-GFP/293 cells, ELISA of lysate; control antibody at 0.24 uM; mean
[8] = target: T2, human FPN1 C-terminally fused with GFP; assay: inhibition of binding of 30 nM biotinylated hepcidin to FPN-GFP/293 cells, ELISA of lysate; control antibody at 0.048 uM; mean
[9] = target: T2, human FPN1 C-terminally fused with GFP; assay: inhibition of binding of 30 nM biotinylated hepcidin to FPN-GFP/293 cells, ELISA of lysate; control antibody at 6.0 uM; mean
[10] = target: T2, human FPN1 C-terminally fused with GFP; assay: inhibition of binding of 30 nM biotinylated hepcidin to FPN-GFP/293 cells, ELISA of lysate; control antibody at 1.2 uM; mean
[11] = target: T2, human FPN1 C-terminally fused with GFP; assay: cell-based or functional assay
rat ferroportin = target: T3, rat ferroportin; assay: not described; told in the pharmacokinetics example
human ferroportin 1 [12] = target: T1, human ferroportin 1; assay: inhibition of binding of 30 nM biotinylated hepcidin to FPN/293 cells, ELISA of lysate; antibody at 2000 nM; mean
human ferroportin 1 [13] = target: T1, human ferroportin 1; assay: inhibition of binding of 30 nM biotinylated hepcidin to FPN/293 cells, ELISA of lysate; antibody at 500 nM; mean
human ferroportin 1 [14] = target: T1, human ferroportin 1; assay: inhibition of binding of 30 nM biotinylated hepcidin to FPN/293 cells, ELISA of lysate; antibody at 125 nM; mean
human ferroportin 1 [15] = target: T1, human ferroportin 1; assay: inhibition of binding of 30 nM biotinylated hepcidin to FPN/293 cells, ELISA of lysate; antibody at 31.25 nM; mean
human ferroportin 1 [16] = target: T1, human ferroportin 1; assay: inhibition of binding of 30 nM biotinylated hepcidin to FPN/293 cells, ELISA of lysate; antibody at 7.8 nM; mean

Row | Molecule | EC50 of inhibition of mature hepcidin induced increase in cellular ferritin, Caco-2 cells (human ferroportin 1 [6]) | Percentage inhibition of mature hepcidin induced increase in cellular ferritin, Caco-2 cells, Mab at 2.22E-7 M (human ferroportin 1 [6]) | Percentage inhibition of mature hepcidin induced increase in cellular ferritin, Caco-2 cells, Mab at 2.47E-8 M (human ferroportin 1 [6]) | Percentage inhibition of mature hepcidin induced increase in cellular ferritin, Caco-2 cells, Mab at 2.7E-9 M (human ferroportin 1 [6]) | Percentage inhibition of mature hepcidin induced increase in cellular ferritin, Caco-2 cells, Mab at 3.0E-10 M (human ferroportin 1 [6]) | Percentage inhibition of mature hepcidin induced increase in cellular ferritin, Caco-2 cells, Mab at 6.67E-7 M (human ferroportin 1 [6]) | Percentage inhibition of mature hepcidin induced increase in cellular ferritin, Caco-2 cells, Mab at 7.4E-8 M (human ferroportin 1 [6]) | Percentage inhibition of mature hepcidin induced increase in cellular ferritin, Caco-2 cells, Mab at 8.0E-9 M (human ferroportin 1 [6]) | Percentage inhibition of mature hepcidin induced increase in cellular ferritin, Caco-2 cells, Mab at 9.0E-10 M (human ferroportin 1 [6]) | Absolute IC50 of inhibition of hepcidin-25-induced internalization and degradation of FPN1-GFP [11] | Relative IC50 of inhibition of hepcidin-25-induced internalization and degradation of FPN1-GFP [11] | Top % Inhibition of hepcidin-25-induced internalization and degradation of FPN1-GFP [11] | binding result (rat ferroportin) | % Inhibition (human ferroportin 1 [12]) | % Inhibition (human ferroportin 1 [13]) | % Inhibition (human ferroportin 1 [14]) | % Inhibition (human ferroportin 1 [15]) | % Inhibition (human ferroportin 1 [16]) | further results
1 | control IgG (antibody) | – | – | – | – | – | – | – | – | – | – | – | – | – | – | – | – | – | – | % Inhibition (human ferroportin 1 [1]): -2.5%; % Inhibition (human ferroportin 1 [2]): 2.5%; % Inhibition (human ferroportin 1 [3]): 1.9%; % Inhibition (human ferroportin 1 [4]): 7.9%; % Inhibition (human ferroportin 1 [5]): -0.7%
2 | Mouse IgG1, a negative control (antibody) | – | – | – | – | – | – | – | – | – | – | – | – | – | – | – | – | – | – | % Inhibition of hepcidin-induced ferritin increase in Caco-2 cells, 6.25 µg/mL (human ferroportin 1 [6]): 0%; % Inhibition of hepcidin-induced ferritin increase in Caco-2 cells, 12.5 µg/mL (human ferroportin 1 [6]): 0%; % Inhibition of hepcidin-induced ferritin increase in Caco-2 cells, 25 µg/mL (human ferroportin 1 [6]): 7.2%; % Inhibition of hepcidin-induced ferritin increase in Caco-2 cells, 50 µg/mL (human ferroportin 1 [6]): 0%; % Inhibition of hepcidin-induced ferritin increase in Caco-2 cells, 100 µg/mL (human ferroportin 1 [6]): 3.5%; % Inhibition of hepcidin-induced ferritin increase in Caco-2 cells, 200 µg/mL (human ferroportin 1 [6]): 11.6%; Ferritin (ng)/protein (µg) in hepcidin-treated Caco-2 cells, 6.25 µg/mL (ng ferritin/µg protein) (human ferroportin 1 [6]): 10.4; Ferritin (ng)/protein (µg) in hepcidin-treated Caco-2 cells, 12.5 µg/mL (ng ferritin/µg protein) (human ferroportin 1 [6]): 10; Ferritin (ng)/protein (µg) in hepcidin-treated Caco-2 cells, 25 µg/mL (ng ferritin/µg protein) (human ferroportin 1 [6]): 9.6; Ferritin (ng)/protein (µg) in hepcidin-treated Caco-2 cells, 50 µg/mL (ng ferritin/µg protein) (human ferroportin 1 [6]): 10.1; Ferritin (ng)/protein (µg) in hepcidin-treated Caco-2 cells, 100 µg/mL (ng ferritin/µg protein) (human ferroportin 1 [6]): 9.78; Ferritin (ng)/protein (µg) in hepcidin-treated Caco-2 cells, 200 µg/mL (ng ferritin/µg protein) (human ferroportin 1 [6]): 9.4; % Inhibition [7]: -4%; % Inhibition [8]: -11%; % Inhibition [9]: -3.4%; % Inhibition [10]: 0.5%
3 | B1 | 37 nM | 59.6% | 36.2% | 24.9% | 12% | 61.9% | 45.6% | 28% | 19.5% | 5.7 nM | 4.7 nM | 85.9% | no binding | 95.3% | 84.9% | 59.3% | 13.4% | 5.4% | –
4 | B2 | 28 nM | 69.3% | 45.3% | 34.8% | 14.2% | 75.2% | 61.1% | 31.6% | 23.3% | 3.8 nM | 3.7 nM | 92.6% | no binding | 79.9% | 81.6% | 88.4% | 32.1% | 18.7% | –
